Reference: patent US20230277625A1 (SIMCHA IL 18, published 2023)

Assays:
[1] = target: T1, IL-18 receptor (IL-18Rα / IL-18Rβ heterodimer) on HEK-Blue IL-18 reporter cells (UniProt Q13478 19-541; O95256 20-599, limits assumed); assay: cell-based or functional assay
T1 sequence (looked up) 1: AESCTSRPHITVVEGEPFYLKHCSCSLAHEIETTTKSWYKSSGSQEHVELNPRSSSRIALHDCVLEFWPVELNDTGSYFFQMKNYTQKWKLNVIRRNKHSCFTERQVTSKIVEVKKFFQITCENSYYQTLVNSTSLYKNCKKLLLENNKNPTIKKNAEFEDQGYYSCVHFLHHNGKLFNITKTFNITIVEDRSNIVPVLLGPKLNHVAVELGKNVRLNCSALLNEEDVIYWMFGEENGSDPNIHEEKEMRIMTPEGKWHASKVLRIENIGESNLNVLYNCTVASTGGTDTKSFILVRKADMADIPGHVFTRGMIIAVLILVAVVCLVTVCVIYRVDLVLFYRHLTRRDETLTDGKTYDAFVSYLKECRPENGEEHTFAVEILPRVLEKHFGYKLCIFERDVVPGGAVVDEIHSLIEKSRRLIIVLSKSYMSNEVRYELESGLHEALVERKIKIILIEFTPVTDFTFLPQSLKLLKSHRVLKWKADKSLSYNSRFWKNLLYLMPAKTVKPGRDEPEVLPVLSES
T1 sequence (looked up) 2: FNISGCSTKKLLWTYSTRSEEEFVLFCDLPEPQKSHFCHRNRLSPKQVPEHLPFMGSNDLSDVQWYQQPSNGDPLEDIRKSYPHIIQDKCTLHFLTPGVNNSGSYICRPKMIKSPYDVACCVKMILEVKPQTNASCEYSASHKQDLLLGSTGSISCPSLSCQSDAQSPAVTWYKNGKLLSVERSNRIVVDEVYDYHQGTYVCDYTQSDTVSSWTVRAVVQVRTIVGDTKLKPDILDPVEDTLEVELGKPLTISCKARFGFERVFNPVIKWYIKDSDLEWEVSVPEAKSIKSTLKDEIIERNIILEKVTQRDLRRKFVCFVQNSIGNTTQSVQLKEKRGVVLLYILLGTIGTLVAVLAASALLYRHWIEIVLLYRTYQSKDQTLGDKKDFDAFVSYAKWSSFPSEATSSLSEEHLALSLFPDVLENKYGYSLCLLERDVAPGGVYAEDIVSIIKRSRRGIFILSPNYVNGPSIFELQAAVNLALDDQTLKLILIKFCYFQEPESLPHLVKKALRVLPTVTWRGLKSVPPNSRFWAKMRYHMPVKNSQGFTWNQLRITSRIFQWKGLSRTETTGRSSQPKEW

[2] = target: T2, Human IL-18Rα ectodomain (amino acids 19-329), biotinylated (human, UniProt Q13478 19-329, biotin on the AviTag (BirA ligase)); assay: SPR single-cycle kinetics, biotinylated hIL-18Rα on a streptavidin capture chip, IL-18 variant as analyte
T2 construct: range 19-329; Secreted from insect cells (gp67 signal peptide removed); also called hIL-18Rα; hIL18Rα
T2 sequence: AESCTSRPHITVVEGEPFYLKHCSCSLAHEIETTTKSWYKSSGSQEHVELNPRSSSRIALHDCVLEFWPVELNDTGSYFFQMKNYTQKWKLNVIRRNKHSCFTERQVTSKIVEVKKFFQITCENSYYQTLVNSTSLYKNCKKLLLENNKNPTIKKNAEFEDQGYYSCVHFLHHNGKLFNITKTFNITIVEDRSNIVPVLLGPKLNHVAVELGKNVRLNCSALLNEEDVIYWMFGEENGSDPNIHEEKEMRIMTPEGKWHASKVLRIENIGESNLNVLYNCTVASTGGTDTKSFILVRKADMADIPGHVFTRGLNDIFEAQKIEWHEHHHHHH
Experimental: (§1) IL-18 receptor affinity. The affinities of human IL-18 and SEQ ID NO: 19 were determined for both human and cynomolgus monkey IL-18Rα and IL-18BP using surface plasmon resonance. Biotinylated receptor proteins were immobilized on a streptavidin capture chip and IL-18 or SEQ ID NO: 19 were applied as the free analyte. […] were used to determine binding. WT hIL-18 and SEQ ID NO: 19 had similar binding affinity for IL-18Rα in this assay (FIG. 37A).

[3] = target: T3, Cynomolgus monkey IL-18Rα, biotinylated (cynomolgus monkey, UniProt A0A2K5V3J9 19-328, biotinylated); assay: SPR single-cycle kinetics, biotinylated cynomolgus IL-18Rα on a streptavidin capture chip, IL-18 variant as analyte
T3 sequence: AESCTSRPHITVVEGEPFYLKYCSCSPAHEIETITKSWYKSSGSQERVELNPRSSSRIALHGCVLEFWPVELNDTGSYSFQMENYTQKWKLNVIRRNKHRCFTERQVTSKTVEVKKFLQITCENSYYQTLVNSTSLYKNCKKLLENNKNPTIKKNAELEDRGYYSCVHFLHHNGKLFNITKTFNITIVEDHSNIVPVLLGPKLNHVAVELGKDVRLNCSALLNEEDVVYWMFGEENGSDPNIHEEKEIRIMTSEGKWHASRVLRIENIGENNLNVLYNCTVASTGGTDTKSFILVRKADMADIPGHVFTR
Experimental: as §1

[4] = target: T2, Human IL-18Rα ectodomain (amino acids …); assay: SPR; average of 2 studies
[5] = target: T4, Human IL-18BP (amino acids 31-194), biotinylated (human, UniProt O95998 31-194, biotin on the AviTag (BirA ligase) where used biotinylated); assay: SPR; average of 2 studies
T4 construct: Soluble decoy receptor; also called hIL-18BP; recombinant IL-18BP
T4 sequence: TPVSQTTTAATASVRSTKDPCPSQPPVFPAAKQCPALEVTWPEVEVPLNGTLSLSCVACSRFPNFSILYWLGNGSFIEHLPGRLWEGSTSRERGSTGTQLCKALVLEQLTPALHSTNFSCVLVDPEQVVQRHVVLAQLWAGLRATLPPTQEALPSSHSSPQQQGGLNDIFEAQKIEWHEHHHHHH

[6] = target: T4, Human IL-18BP (amino acids 31-194), …; assay: SPR; KD ratio relative to WT IL-18
Experimental: (§2) Experiments were conducted using a Biacore T100 and carried out at 25° C. Biotinylated IL-18Rα or IL-18BP were immobilized onto a Biacore biotin capture chip (Series S CAP sensor chip, GE Healthcare) to yield an Rmax of ˜50 RU (IL-18Rα) or ˜10 RU (IL-18BP). Measurements were made with serial dilutions of the IL-18 variants in HEPES buffered Saline-P+buffer (10 mM HEPES pH 7.4, 150 mM NaCl, 0.005% surfactant P20). The surface was regenerated by three 60-sec injections of regeneration buffer (3/4 (v/v) 8M guanidine hydrochloride with 1/4 (v/v) 1M sodium hydroxide). Experiments were performed in multiple channels simultaneously for increased observations. All data were analyzed with the Biacore T100 evaluation software version 2.0 with a 1:1 Langmuir binding model.
(§3) To additionally characterize the receptor binding activities of the DR-IL-18 variants, the cytokines were expressed recombinantly and surface plasmon resonance for IL-18Rα and IL-18BP was performed (see FIG. 5B for representative traces).

[7] = target: T4, Human IL-18BP (amino acids 31-194), …; assay: SPR; KD for IL-18BP over KD for IL-18Rα
Experimental: as §2, §3

[8] = target: T4, Human IL-18BP (amino acids 31-194), …; assay: on-yeast binding isotherm (flow cytometry)
[9] = target: T4, Human IL-18BP (amino acids 31-194), …; assay: SPR; KD(IL-18BP)/KD(IL-18Rα) normalized to WT IL-18
[10] = target: T4, Human IL-18BP (amino acids 31-194), …; assay: on-yeast binding isotherms; KD ratio relative to WT IL-18
[11] = target: T4, Human IL-18BP (amino acids 31-194), …; assay: on-yeast binding isotherms; KD for IL-18BP over KD for IL-18Rα
[12] = target: T4, Human IL-18BP (amino acids 31-194), …; assay: SPR (Biacore T100), IL-18BP captured via biotin, IL-18 as analyte
Experimental: as §2, §3

[13] = target: T4, Human IL-18BP (amino acids 31-194), …; assay: on-yeast binding isotherm (flow cytometry); members per FIG. 5A legend
Experimental: Individual colonies of IL-18 yeast were grown overnight at 30° C. in SDCAA liquid media and induced in SGCAA liquid media for 1 day at 20° C. IL-18 display levels on yeast were verified by flow cytometry using an anti-cMyc tag antibody (anti-myc-PE; Cell Signaling Technologies). Receptor staining with biotinylated IL-18Rα (with or without IL-18R β) or biotinylated IL-18BP was performed in PBS supplemented with 0.5% BSA and 2 mM EDTA (PBE) on ice. All analysis was performed on a Sony SA3800 flow cytometer.
as §3

[14] = target: T2, Human IL-18Rα ectodomain (amino acids …); assay: SPR (Biacore T100), receptor captured via biotin, IL-18 as analyte
Experimental: as §2, §3

[15] = target: T4, Human IL-18BP (amino acids 31-194), …; assay: on-yeast binding isotherms; 20 µM used for NBD; yeast-displayed variant; ratio computed with 20 µM put in for NBD
[16] = target: T4, Human IL-18BP (amino acids 31-194), …; assay: on-yeast binding isotherms; KD ratio relative to WT IL-18; yeast-displayed variant; ratio normalized to WT, from the 20 µM placeholder

B1: SEQ ID NO: 19 (stabilized human DR-IL-18; SEQ ID NO: 89 plus C38S/C68D) (ligand)
chain: YFGKLESKLSVIRNLNDQVLFIDQGNRPLFEDMTDSDSRDNAPRTIFIISKYSDSLARGLAVTISVKDEKISTLSCENKIISFKEMNPPDNIKDTKSDIIFFQRDVPGHSRKMQFESSSYEGYFLACEKERDLFKLILKKEDELGDRSIMFTVQNED
EC50-#1 (M), HEK-Blue reporter [1]: 1.24e-10 M
EC50-#2 (M), HEK-Blue reporter [1]: 7.9e-11 M
Kd [2]: 18.8 nM
Kd [3]: 10.9 nM

B2: SEQ ID NO: 36 (human DR-IL-18 variant hCS3) (ligand)
chain: RFGKLESKLSVIRNLNDQVLFIDQGNRPLFEDMTDSDCRDNAPRTIFIISTYKDSQPRGKAVTISVKCEKISTLSCENKIISFKEMNPPDNIKDTKSDIIFFQRDVPGHKHKMQFESSSYEGYFLACEKERDLFKLILKKEDELGDRSIMFTVQNED
notes: Engineered variant
Kd [4]: 9.1 nM
Kd [5]: 19.3 nM
Dissociation Constant Ratio normalized to WT IL-18 [6]: 3500
KD ratio IL-18BP/IL-18Rα [7]: 2.27
Kd [8]: 11600 nM
IL-18 BP:Rα Dissociation Constant Ratio [9]: 4350
Dissociation Constant Ratio normalized to WT IL-18 [10]: 348
KD ratio IL-18BP/IL-18Rα [11]: 103
Kd [12]: 18.6 nM
EC50 [13]: > 1000 nM
Kd [14]: 8.18 nM

B3: SEQ ID NO: 39 (human DR-IL-18 variant hA8) (ligand)
chain: YFGKLESRLSVIRNLNDQVLFIDQGNRPLFEDMTDSDCRDNAPRTIFIISKYKDKQPRAQAVTISVKCEKISTLSCENKIISFKEMNPPDNIKDTKSDIIFFQRDVPGHKHKMQFESSSYEGYFLACEKERDLFKLILKKEDELGDRSIMFTIQNED
notes: Engineered variant
KD ratio IL-18BP/IL-18Rα [15]: > 347
Dissociation Constant Ratio normalized to WT IL-18 [16]: > 1170
